Measured values: publication PMC8881592

Experiment: time-resolved SAXS; rSslE 0.7 mg/ml in 20 mM citrate-phosphate buffer pH 4.4, 25 °C, stirred and circulated, data every 30 min over 11 h; COSMiCS decomposition into monomer and aggregate
Conditions: other: time-resolved SAXS

With “recombinant SslE from E. coli W (rSslE; residues 67 to 1497)” the “molar fraction of the aggregated species after 30 min” value was “the aggregated species already represented 50% of the molar fraction”.
